Measured values as given in publication PMC3086721 (Biochemical and biophysical research communications, 2011).
Where two headings read alike, the source gives them in different places. One block for each binder: values may come before it.

Assays:
Wild-type ubiquitin [1] = molecular target: T1, Wild-type ubiquitin (UniProt P0CG48 1-76); assay: NMR titration
Wild-type ubiquitin [2] = molecular target: T1, Wild-type ubiquitin; assay: NMR titration; remark: listed apart in the source

Kd (Wild-type ubiquitin [1]): ~1000 µM
B1: Full-length E2-25K (enzyme, UniProt P61086 1-200, looked up)
chain: MANIAVQRIKREFKEVLKSEETSKNQIKVDLVDENFTELRGEIAGPPDTPYEGGRYQLEIKIPETYPFNPPKVRFITKIWHPNISSVTGAICLDILKDQWAAAMTLRTVLLSLQALLAAAEPDDPQDAVVANQYKQNPEMFKQTARLWAHVYAGAPVSSPEYTKKIENLCAMGFDRNAVIVALSSKSWDVETATELLLSN

Kd (Wild-type ubiquitin [2]): ~1200 µM
Binder: GAPVSSPEYTKKIENLCAMGFDRNAVIVALSSKSWDVETATELLLSN (domain or fragment, UniProt P61086 154-200, looked up) [E2-25K UBA domain (residues G154-N200)]
